# Substrate: CC(=O)N[C@@H](CC(=O)O)C(=O)N[C@@H](CCC(=O)O)C(=O)N[C@H](C(=O)N[C@@H](CC(=O)O)C(=O)Nc1ccc2c(C)cc(=O)oc2c1)C(C)C
# Experiment: continuous fluorometric assay with Ac-DEVD-AMC and purified apopain
# Format: biochemical, human
# Conditions: other: purified apopain, 25° C., pH 7.5
protein,measurement,value
"apopain/CPP32 (Homo sapiens) (protein, cleavage between Asp^28 -Ser^29 and Asp^175 -Ser^176; cleavage sites which yield the p17 and p12 subunits from the CPP32 proenzyme; endogenous in cells; host or cells: THP-1 cells (ATCC TIB 202)) chain 1: SGISLDNSYKMDYPEMGLCIIINNKNFHKSTGMTSRSGTDVDAANLRETFRNLKYEVRNKNDLTREEIVELMRDVSKEDHSKRSSFVCVLLSHGEEGIIFGTNGPVDLKKITNFFRGDRCRSLTGKPKLFIIQACRGTELDCGIETD chain 2: SGVDDDMACHKIPVEADFLYAYSTAPGYYSWRNSKDGSWFIQSLCAMLKQYADKLEFMHILTRVNRKVATEFESFSFDATFHAKKQIPCIVSMLTKELYFYH",Km,9.7 ± 1.0 µM
